Assay results published in paper PMC12051542, “Identification of the phosphatase essential for riboflavin biosynthesis in Aquifex aeolicus” (The Journal of Biological Chemistry, 2025).

B1: putative phosphatase 11 (PP11), annotated as a myo-inositol-1(or 4)-monophosphatase (IMP), Aquifex aeolicus (enzyme)
chain: MENLKKYLEVAKIAALAGGQVLKENFGKVKKENIEEKGEKDFVSYVDKTSEERIKEVILKFFPDHEVVGEEMGAEGSGSEYRWFIDPLDGTKNYINGFPIFAVSVGLVKGEEPIVGAVYLPYFDKLYWGAKGLGAYVNGKRIKVKDNESLKHAGVVYGFPSRSRRDISIYLNIFKDVFYEVGSMRRPGAAAVDLCMVAEGIFDGMMEFEMKPWDITAGLVILKEAGGVYTLVGEPFGVSDIIAGNKALHDFILQVAKKYMEVAV
notes: Aquifex aeolicus putative phosphatase 11, annotated as myo-inositol-1(or 4)-monophosphatase; codon optimised, in pET20b with a stop codon before the C-terminal histidine tag so that the protein is expressed in the native form; Untagged; Two magnesium ions and a phosphate in the active site of the structure; source: E. coli BL21 (DE3), purified (heat 70 °C, gel filtration)

Columns and labels:
[1] = molecular target: putative phosphatase 17 (PP17), a histidine family phosphatase (HFP), Aquifex aeolicus (Aquifex aeolicus); assay: SEC; preparative gel filtration, 120 ml HiLoad 16/600 Superdex 75 prep grade column, 50 mM Hepes pH 8.0, 150 mM NaCl, 20% glycerol
[2] = molecular target: the molecule itself; assay: SEC; 120 ml HiLoad 16/600 Superdex 75 prep grade column, 50 mM Hepes pH 8.0, 150 mM NaCl, 20% glycerol; molecular weight from a standard curve of commercial standard proteins (65 kDa)

| Molecule | stoichiometry N [1] | stoichiometry N [2] |
| --- | --- | --- |
| putative phosphatase 17 (PP17), a histidine family phosphatase (HFP), Aquifex aeolicus (enzyme) | 2 | – |
| B1 | – | 2 |
